Results on eight substances are retold here after patent US20190388506A1.

In one experiment the target is C3b (purified) (UniProt P01024). The experiment is described as follows: cell-based or functional assay.
Chain of C3b (purified) (P01024 749-1663, chain 1 of 2): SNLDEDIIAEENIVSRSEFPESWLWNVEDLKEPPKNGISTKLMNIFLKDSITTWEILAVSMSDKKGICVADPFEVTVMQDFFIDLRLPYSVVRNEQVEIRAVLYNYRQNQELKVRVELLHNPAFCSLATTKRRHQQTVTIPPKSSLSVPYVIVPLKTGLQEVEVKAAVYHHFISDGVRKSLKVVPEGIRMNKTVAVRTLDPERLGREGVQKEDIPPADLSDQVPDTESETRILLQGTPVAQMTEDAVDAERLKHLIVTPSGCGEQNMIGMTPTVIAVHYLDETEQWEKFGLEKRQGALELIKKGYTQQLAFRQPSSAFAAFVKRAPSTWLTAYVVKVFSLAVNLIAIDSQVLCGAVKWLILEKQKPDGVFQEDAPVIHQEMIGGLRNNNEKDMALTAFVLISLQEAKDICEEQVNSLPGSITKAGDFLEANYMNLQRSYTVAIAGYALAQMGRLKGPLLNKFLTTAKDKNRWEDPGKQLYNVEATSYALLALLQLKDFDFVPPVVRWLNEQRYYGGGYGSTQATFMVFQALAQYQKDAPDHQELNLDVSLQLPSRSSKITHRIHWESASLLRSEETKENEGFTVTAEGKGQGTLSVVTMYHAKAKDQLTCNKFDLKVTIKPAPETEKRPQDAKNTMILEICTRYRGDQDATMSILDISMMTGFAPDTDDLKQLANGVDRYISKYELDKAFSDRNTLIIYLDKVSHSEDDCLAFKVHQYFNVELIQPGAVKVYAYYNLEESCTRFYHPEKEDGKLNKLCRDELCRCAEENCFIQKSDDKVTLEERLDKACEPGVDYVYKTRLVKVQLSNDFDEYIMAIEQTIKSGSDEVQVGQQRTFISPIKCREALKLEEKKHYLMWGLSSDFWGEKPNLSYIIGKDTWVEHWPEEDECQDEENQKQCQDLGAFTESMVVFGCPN
Chain of C3b (purified) (P01024 23-667, chain 2 of 2): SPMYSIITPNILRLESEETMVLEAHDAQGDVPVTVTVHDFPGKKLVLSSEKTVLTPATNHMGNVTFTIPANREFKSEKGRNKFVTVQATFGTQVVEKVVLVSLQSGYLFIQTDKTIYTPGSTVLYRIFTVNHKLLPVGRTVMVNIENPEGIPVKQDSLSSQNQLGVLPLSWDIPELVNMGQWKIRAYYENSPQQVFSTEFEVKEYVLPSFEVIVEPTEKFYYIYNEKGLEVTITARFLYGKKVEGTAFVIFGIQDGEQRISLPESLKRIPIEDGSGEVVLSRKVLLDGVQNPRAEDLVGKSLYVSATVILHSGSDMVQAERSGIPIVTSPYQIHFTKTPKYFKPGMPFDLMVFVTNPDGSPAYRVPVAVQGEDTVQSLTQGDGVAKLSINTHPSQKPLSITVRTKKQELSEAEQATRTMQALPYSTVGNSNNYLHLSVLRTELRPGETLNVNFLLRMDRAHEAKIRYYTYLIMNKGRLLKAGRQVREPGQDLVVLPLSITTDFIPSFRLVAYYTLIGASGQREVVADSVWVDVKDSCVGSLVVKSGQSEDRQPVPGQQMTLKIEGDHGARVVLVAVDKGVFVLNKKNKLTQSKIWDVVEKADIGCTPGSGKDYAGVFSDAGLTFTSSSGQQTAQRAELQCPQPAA
On to “FH fragment "SCR6-8" (SCR 6 to 8 of human factor H)”, for which the F1 cofactor (%) came to 0%.
“FH fragment "1NT18" (SCR 1 to 18 of human factor H) (from UniProt P08603 19-1102)” displayed an F1 cofactor (%) of 100%.
The same measure, in the same setting: under “FH fragment "7CT18" (SCR 7 to 18 of human factor H) (from UniProt P08603 389-1102)” stands 0%; under “FH fragment "SCR1-4" (SCR 1 to 4 of human factor H)”, 100%; under “FH fragment "8CT20" (SCR 8 to 20 of human factor H) (from UniProt P08603 448-1231)”, 0%.
On the same count and under the same terms, under “FH fragment "SCR1-6" (SCR 1 to 6 of human factor H) (from UniProt P08603 19-388)” stands 100%; under “FH fragment "7CT20" (SCR 7 to 20 of human factor H) (from UniProt P08603 389-1231)”, 0%.
“FH fragment "1NT7" (SCR 1 to 7 of human factor H) (from UniProt P08603 19-447)” had an F1 cofactor (%) of 100%.

The target of another experiment is C3 convertase (C3bBb) (human) (UniProt P01024). The experiment is described as follows: cell-based or functional assay.
Chain of C3 convertase (C3bBb) (human) (P01024 749-1663, chain 1 of 2): as the sequence (P01024 749-1663, chain 1 of 2) above
Chain of C3 convertase (C3bBb) (human) (P00751 260-764, chain 2 of 2, further chain): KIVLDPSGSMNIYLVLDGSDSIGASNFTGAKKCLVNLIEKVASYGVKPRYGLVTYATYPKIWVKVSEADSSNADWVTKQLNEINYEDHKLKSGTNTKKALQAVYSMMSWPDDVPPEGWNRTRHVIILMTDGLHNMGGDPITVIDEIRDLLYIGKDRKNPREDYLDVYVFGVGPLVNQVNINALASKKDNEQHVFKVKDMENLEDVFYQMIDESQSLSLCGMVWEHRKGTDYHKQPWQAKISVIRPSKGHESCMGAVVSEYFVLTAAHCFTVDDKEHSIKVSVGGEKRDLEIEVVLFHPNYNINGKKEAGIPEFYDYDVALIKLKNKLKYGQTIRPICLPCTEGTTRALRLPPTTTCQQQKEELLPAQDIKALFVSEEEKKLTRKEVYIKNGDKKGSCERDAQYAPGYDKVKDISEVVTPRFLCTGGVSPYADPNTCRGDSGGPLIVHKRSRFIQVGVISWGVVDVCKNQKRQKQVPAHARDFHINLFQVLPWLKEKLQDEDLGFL
Regarding “FH fragment "SCR1-6" (SCR 1 to 6 of human factor H) (from UniProt P08603 19-388)”, the Anti-C3 convertase (EC50 µg/ml) is 0.093 µg/mL.
